Patent publication US20190247432A1 (published 2019)

Biological target: T1, NY-ESO-1 (the LAGE-1S transcript variant shares the same epitope) peptide on HLA-A*02:01 (human)
T1 peptide: SLLMWITQC
Test: multimer staining

B1: 8F NY-ESO-1 TCR (TCR, V domains shown)
Valpha: EEDPQALSIQEGENATMNCSYKTSINNLQWYRQNSGRGLVHLILIRSNEREKHSGRLRVTLDTSKKSSSLLITASRAADTASYFCATDGAGKSTFGDGTTLTVKP
Vbeta: VIQSPRHEVTEMGQEVTLRCKPISGHDYLFWYRQTMMRGLELLIYFNNNVPIDDSGMPEDRFSAKMPNASFSTLKIQPSEPRDSAVYFCASTIGAQPQHFGDGTRLSIL
B1: recognises.
